Laboratory results published in PMC5397179.

Legend:
RNAP subunit α = test: pulldown quantified by mass spectrometry; settings: parent: est. 6.2; read off a plot
RNAP subunit β' = test: pulldown quantified by mass spectrometry; settings: parent: est. 12; read off a plot
RNAP subunit β = test: pulldown quantified by mass spectrometry; settings: parent: est. 16; read off a plot
RNAP subunit δ = test: pulldown quantified by mass spectrometry; settings: parent: est. 12; read off a plot
RNAP subunit ω = test: pulldown quantified by mass spectrometry; settings: parent: est. 13; read off a plot
[1] = test system: PcrA-sCt (C-terminal Tudor-like domain) (Geobacillus stearothermophilus); test: EMSA; settings: no binding detected up to 5 uM; 2.5 mM Mg2+; EMSA: 50 nM (so in the source) HEPES-KOH pH 7.5, 100 mM KCl, 2.5 mM MgCl2, 0.1 mg/mL BSA, 1 mM (reagent truncated in material); 20 nM DNA; TBE-PAGE; temperature not …

| Substance | other: Relative Ion Score (RNAP subunit α) | other: Relative Ion Score (RNAP subunit β') | other: Relative Ion Score (RNAP subunit β) | other: Relative Ion Score (RNAP subunit δ) | other: Relative Ion Score (RNAP subunit ω) | Kd [1] |
| --- | --- | --- | --- | --- | --- | --- |
| Biotinylated full length PcrA (Geobacillus stearothermophilus), wild type (from UniProt P56255) L714A | 2.7 | 2.8 | 4.1 | 3.6 | 2.6 |  |
| Biotinylated full length PcrA (Geobacillus stearothermophilus), wild type (from UniProt P56255) K712A | 2.7 | 3.6 | 4.5 | 3.1 | 4.7 |  |
| 147 base ssDNA oligonucleotide |  |  |  |  |  | > 5 µM |
| 147 bp dsDNA |  |  |  |  |  | > 5 µM |
